System: MS2 coat protein
Assay: apparent KD of MS2 coat protein; designed switch direction (-1 OFF switch, 1 ON switch): -1; higher = weaker reporter binding
Summary of the method: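 For each design, the apparent KD is the median over clusters of curves fitted to normalised cluster fluorescence. Clusters held RNA switches with common flanks, transcribed on Illumina chips by stalled E. coli RNA polymerase. These were titrated with SNAP-549-labelled MS2 coat protein, doubling from 0.7 or 1.5 nM to 3 µM, without input, with 200 uM small-molecule ligand, or with an oligonucleotide input.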

[1] = Eterna round: R95, input ligand: FMN 200 uM
[2] = Eterna round: R95, input ligand: microRNA oligo, concentration not stated
[3] = Eterna round: R95, input ligand: none
[4] = input ligand: microRNA oligo, concentration not stated

Sequence | apparent KD of MS2 coat protein (input ligand: FMN 200 uM) [nM] | apparent KD of MS2 coat protein (input ligand: none) [nM] | apparent KD of MS2 coat protein [1] [nM] | apparent KD of MS2 coat protein [2] [nM] | apparent KD of MS2 coat protein [3] [nM] | apparent KD of MS2 coat protein [4] [nM]
AUAAUGUAAGGAUAUCAGUCGACUAGCCUCGGCUAGUCGACUGAGAAGGUACAUGAGGAUCACCCAUGUAGAUC [E4/19-A2] (Eterna round: R97, puzzle: Exclusion 4) | 352 | 47.8 |  |  |  | 
AUAAUGUAAGGAUAUCAGUCGACUAGCGAUAGCUAGUCGACUGAGAAGGUACAUGAGGAUCACCCAUGUGAUUA [E4/10-A4] (Eterna round: R97, puzzle: Exclusion 4) | 421 | 167 |  |  |  | 
AUAAUGUAAGGAUAUCAGUCGACUAGCUGCGGCUAGUCGACUGAGAAGGUACAUGAGGAUCACCCAUGUGGUUC [E4/11-A3] (Eterna round: R97, puzzle: Exclusion 4) | 185 | 304 |  |  |  | 
AUAAUGUAAGGAUAUCAGUCGACUAGCUUCGGCUAGUCGACUGAGAAGGUACAUGAGGAUCACCCAUGUAGAUC [E4/19-A1] (Eterna round: R97, puzzle: Exclusion 4) | 363 | 66 |  |  |  | 
AUAAUGUAAGGAUAUCAGUCGUACAGCUGCGGCUGUACGACUGAGAAGGUACAUGAGGAUCACCCAUGUGGUCA [E4/9-A3] (Eterna round: R97, puzzle: Exclusion 4) | 324 | 694 |  |  |  | 
AUAAUGUCAGGAUAUACAUGAGGAUCACCCAUGUUAGAAAGAGAAGAAGAGAAACUAUGUAGAAGGGACAAUAA [Hair Trigger] (puzzle: Exclusion 3) |  |  | 43.7 | 20.6 | 29.1 | 
AUAAUGUCAGGAUAUCAGAAGUUUAACCUCGGUUAAACUUCUGAGAAGGGACAUGAGGAUCACCCAUGUGAUUA [E4/3-B2] (Eterna round: R97, puzzle: Exclusion 4) | 68.4 | 950 |  |  |  | 
AUAAUGUCAGGAUAUCAGUCGACUAGCUGCGGCUAGUCGACUGAGAAGGGACAUGAGGAUCACCCAUGUAGAUC [E4/18-A3] (Eterna round: R97, puzzle: Exclusion 4) | 244 | 992 |  |  |  | 
AUAAUGUCAGGAUAUCAGUCGACUAGCUUCGGCUAGUCGACUGAGAAGGGACAUGAGGAUCACCCAUGUAGAUC [E4/18-A1] (Eterna round: R97, puzzle: Exclusion 4) | 267 | 1120 |  |  |  | 
AUAAUGUCAGGAUAUCAGUCGUACAGCGAUAGCUGUACGACUGAGAAGGGACAUGAGGAUCACCCAUGUGGUCA [E4/6-A4] (Eterna round: R97, puzzle: Exclusion 4) | 13.3 | 18.1 |  |  |  | 
AUAAUGUCAGGAUAUCAGUCGUACAGCGAUAGCUGUACGACUGAGAAGGGACAUGAGGAUCACCCAUGUGGUUA [E4/7-A4] (Eterna round: R97, puzzle: Exclusion 4) | 169 | 1910 |  |  |  | 
AUAAUGUCAGGAUAUCAGUCGUACAGCUUCGGCUGUACGACUGAGAAGGGACAUGAGGAUCACCCAUGUGGUCA [E4/6-A1] (Eterna round: R97, puzzle: Exclusion 4) | 61 | 50.9 |  |  |  | 
AUAAUGUGAGGAUAUCAGUAAGAAUGCCUCGGCAUUCUUACUGAGAAGGCACAUGAGGAUCACCCAUGUGAUUA [E4/4-B2] (Eterna round: R97, puzzle: Exclusion 4) | 596 | 182 |  |  |  | 
AUAAUUAAUCGAGGAUAUCAGCACGUGUAGUGCUGAGAAGGCGACAUGAGGAUCACCCAUGUGAUCAAUUAAUAUUAAUAUUAU [ENG1/11-C3] (Eterna round: R96, puzzle: Exclusion NG 1) | 1330 | 866 |  |  |  | 565
AUAAUUAGUUCAGGAUAUCAGCACGUGUAGUGCUGAGAAGGGAACAUGAGGAUCACCCAUGUGAUCAAUAUUAUAAUUUUAAUU [ENG1/12-B3] (Eterna round: R96, puzzle: Exclusion NG 1) | 420 | 1190 |  |  |  | 925
AUACACUAAGUGAGGAUAUCGAUUUCUUUAAGGAUCGAGAAGGCACAUGAGGAUCACCCAUGUUUGACGUGAAU [JR_BMOE4_Sub096] (puzzle: Brourd's mod of Exclusion 4) |  |  |  | 30.3 |  | 
AUACACUGAGGAUAUACAUGAGGAUCACCCAUGUGGAAAGCCUCUGGCGGAACUUCGUGUAGAAGGCAGCCACG [Esatdi] (puzzle: Exclusion 3) |  |  | 18 | 13.9 | 13.4 | 
AUACCACGAGGAUAUCGUCUAUAAUACAUGAGGAUCACCCAUGUUAUAUCUGUAAUGUUUCGAGAAGGCGUGUUUU [JR_E5_Sub083] (puzzle: Exclusion 5) |  |  |  | 16.6 |  | 

Sequence | apparent KD of MS2 coat protein (input ligand: FMN 200 uM) [nM] | apparent KD of MS2 coat protein (input ligand: none) [nM] | apparent KD of MS2 coat protein [1] [nM] | apparent KD of MS2 coat protein [2] [nM] | apparent KD of MS2 coat protein [3] [nM] | apparent KD of MS2 coat protein [4] [nM]
AUAGAGUCAGGAUAUACAAGAUGAAAGAUAGAUAGAAGAAAGUAGAAGGGACAUGAGGAUCACCCAUGUAAGAA [JR_Exclu4_Sub051] (puzzle: Exclusion 4) |  |  | 34.9 | 31.7 | 36.2 | 
AUAGAUCGUUAGGAUAUCCAGAUGACCCUCGUUGGAGAAGGAACGACAUGAGGAUCACCCAUGUUAUAGUACUU [Eternabot (L2) Solution 66] (Eterna round: R97, puzzle: Exclusion 6) | 16.9 | 18.5 |  |  |  | 
AUAGGAGGAGGAUAUGAAACCGAUAACAUGAGGAUCACCCAUGUCGAAAGAACUUUCCGGUCAGAAGGCCUGAUGU [Eternabot (L2) Solution 60] (Eterna round: R97, puzzle: Exclusion 5) | 16.3 | 25.1 |  |  |  | 
AUAGGCUUUUAUAUCCUUAACAUGAGGAUCACCCAUGUUCGUCUUAUGAUGGUCUGAUCCCUGAGGAUCGGACCGUU [JL-sv1-2.05 Brourd Mod] (puzzle: Sensor v3, turn-off variant 1) |  |  | 32.3 | 134 | 35.4 | 
AUAGUAUUGCAAGGAUAUCGAUUUAGUUUGUUUCGAGAAGGUGCUUUAGUUUAUACCUCUUGUUUACAUGAGGAUCACCCAUGU [JR_ExcNG1_Sub049] (Eterna round: R96, puzzle: Exclusion NG 1) | 18.5 | 27.5 |  |  |  | 19.2
AUAGUGUUAGGAUAUGCUUAUGCUGGGUAGUCCAGUAUGGAGUAGAAGGGACAUGAGGAUCACCCAUGUGCUCA [EX4 #40] (Eterna round: R97, puzzle: Exclusion 4) | 18.6 | 20.5 |  |  |  | 
AUAUAGAUGGUCAGGAUAUGCUAGUGGUAACAGUAGCAGAAGGGACAUGAGGAUCACCCAUGUAGAUCCUGCUC [Brourd's EX4 #13] (Eterna round: R97, puzzle: Brourd's mod of Exclusion 4) | 33.5 | 21.1 |  |  |  | 
AUAUAUAGUGUGAGGAUAUGCUGGUCCUUGGAUCAGCAGAAGGCACAUGAGGAUCACCCAUGUAGUUUAUUUUU [Mat - Exclusion 4 - JL Mod - D5] (puzzle: Brourd's mod of Exclusion 4) |  |  |  | 26.2 |  | 
AUAUAUAUAGGAUAUACAUGAGGAUCACCCAUGUAAAGUAGCUUGCGUACAGGCAGAUGUAGAAGGAUAUAUAU [Mod of JL 15 - Jieux - Exclusion 3] (Eterna round: R97, puzzle: Exclusion 3) | 29.2 | 33.1 |  |  |  | 
AUAUCCAGAGGAUAUCCGCACGGACACAUGAGGAUCACCCAUGUUUUCAUGAACGUUGCCGGAGAAGGCUGAGGAA [Eternabot (Original) Solution 10] (Eterna round: R97, puzzle: Exclusion 5) | 79.7 | 69.7 |  |  |  | 
AUAUGUAACUAGGAUAUCAGCAUACUUCAAUGUUGAGAAGGAGUUACAUGAGGAUCACCCAUGUAUCCAACAUG [Exclusion 6 - 3] (Eterna round: R96, puzzle: Exclusion 6) | 73.3 | 67.1 |  |  |  | 56.7
AUAUGUAACUAGGAUAUCAGCAUACUUCAAUGUUGAGAAGGAGUUACAUGAGGAUCACCCAUGUAUCCAACAUG [Exclusion 6 - 3] (puzzle: Exclusion 6) |  |  |  | 44.1 |  | 
AUAUUGUGAGGAUAUGAACUUAGUAUCGAAAGAUUCUAAGUUCAGAAGGCACAUGAGGAUCACCCAUGUUUCUC [Long static hairpin v20] (Eterna round: R97, puzzle: Exclusion 4) | 808 | 81.9 |  |  |  | 
AUAUUUAAGCUUUUGUGAAACAUGAGGAUCACCCAUGUCCUCAUACCUGGACAUUUAAGUCUAGGAGCUCGUCUUAU [Last end dangle 1] (Eterna round: R97, puzzle: Sensor, turn-off variant 1) | 518 | 558 |  |  |  | 
AUAUUUAGCUUUUUGUGAAACAUGAGGAUCACCCAUGUCCUCAUACCUGGACAUUUAAGUCUAGGAGCUCGUCUUAU [Last end dangle 2] (Eterna round: R97, puzzle: Sensor, turn-off variant 1) | 479 | 612 |  |  |  | 
AUCAAAUUAAAUACAGAUCACAUGAGGAUCACCCAUGUCGUACGAGUGCAGAUCUUUGAAGCUGGCUCGUCUAAGUG [Eternabot (L2) Solution 21] (Eterna round: R97, puzzle: Sensor, turn-off variant 1) | 154 | 165 |  |  |  | 
AUCAGCUCGUCAGGAUAUACAUCACUGCUUCGGCAGUGUAUUAAGAUCACAUGAGGAUCACCCAUGUAGAAGGGACGAGCUGAU [ENG2/2-B3] (Eterna round: R96, puzzle: Exclusion NG 2) | 342 | 25.3 |  |  |  | 18.2

— the supplement of paper PMC9170038
